Residue numbers refer to the chain shown, from its start.
B1: antibody G7P3 (antibody, V domains shown)
VH: EVQLVESGGGLVQPGGSLRLSCAASGFSFGSYSMNWVRQAPGKGLEWVSHISSGSSSIYYADSVKGRFTISRDSVKNSLYLQMNNLRAEDTAVYYCARGWTGYDAFDIWGQGTMVTVSS
VL: DIQMTQSPSSLSASVGDRVTITCRASQVISNYLAWYQEKPGKVPKLLIYAASTLQSGVPSRFSGSGTGTDFTLTIRSLQPEDVATYYCQKYNNAPLTFGGGTKVEIK
B2: antibody E8P5 (antibody, V domains shown)
VH: B1 VH with Q13H, S28R, S31T, Y95F
VL: B1 VL with K42E, R76S
B3: antibody B7P3 (antibody, V domains shown)
VH: EVQLVESGGGVVQPGRSLRLSCAASGFTFSNFGMHWVRQPPGKGLEWVAVISYDGSDKFYADSVKGRFTISRDNFKNTLYVQMNSLRAEDTAVYYCAKDRVRTKYYYDHSGPFDYWGRGTLVTVSS
VL: SYVLTQPPSVSVAPGQTARIACGGNNIGSKSVHWYQQRPGQAPVLVVYDDDDRPSGIPERFSGSNSGNTATLTISRVEAGDEADYFCQVWMTNSDRPVFGGGTKLTVL
B4: antibody E10P5 (antibody, V domains shown)
VH: QVQLQESGPGLVKPSQTLSLTCSVSGGSISSGNYYWSWIRQPAGKGLEWIGRIYTSGNTNYNPSLKSRVTMSVDTSKNQFSLKLSSVTATDTAVYYCARVRRDGYNAFDYWGQGTLVTVSS
VL: SYELTQPPSVSVSPGQTASIDCSGHNLGDKFTCWYQQKPGQSPVLVIYQDSKRPSGIPERFSGSNSGNTATLTISGTQAMDEADYYCQAWDSDTLYVFGTGTTVTVL
B5: antibody C4P7 (antibody, V domains shown)
VH: EVQLLESGGGLVQPGGSLRLSCAASGFTFSSYAMSWVRQAPGKGLEWVSSLTGSGGSTYYRDSVKGRFTIFRDNSKKTLYMQMNSLRAEDTAVYYCAKEGAYSYDFWYFDLWGRGTLVTVSS
VL: EIVLTQSPGTLSLSPGERATLSCRASQTVSGNYLAWYQQKPGQSPSLLIYGASSRATGIPDRFTGSGSGTDFTLTISRLEPADFAVYYCQQYGRPLTFGGGTKVEIK
B6: antibody C10P8 (antibody, V domains shown)
VH: QVQLQESGPGLVKPSQTLSLTCTVSGGSISSGRYYWSWIRQPAGKGLEWIGRVYFSGSTNYNPSLKNRVTLSVDTSKNQFSLKLSSVIAADTAVYYCARAVRDYGDSYSFDYWGQGTLVTVSS
VL: QSALTQPASVSGSPGQSITISCTGSSSDIGGYNYVSWYQVHPGKAPHLKIYDVVNRPSGVSNRFPGSKSGNTASLTISGLLADDEAYYYCCSYSIRGTPVFGGGTKLTVL

Molecular target: VP1 pentamer of BKV genotype II (recombinant) (BK virus genotype II), P14996
Test: ELISA, coated VP1 pentamer
Details: remark: other sources report otherwise

Binder	EC50 [µg/mL]
B1	0.04
B2	0.08
B3	5.5
B4	0.065
B5	5

Molecular target: VP1 pentamer of BKV genotype IV (recombinant) (BK virus genotype IV), P14996
Test: ELISA, coated VP1 pentamer
Details: remark: other sources report otherwise

Binder	EC50 [µg/mL]
B6	10
